Assay results as given in patent US20160185837A1 (AstraZeneca / MedImmune, published 2016).
Ends that are not written are not given here.

How the values were obtained:
Experiment in all cases: cell-based or functional assay
human glucagon receptor = human glucagon receptor (human, UniProt P47871 26-477)
human GIP receptor = target: T1, human GIP receptor (human, UniProt P48546 22-466)
T1 sequence (looked up): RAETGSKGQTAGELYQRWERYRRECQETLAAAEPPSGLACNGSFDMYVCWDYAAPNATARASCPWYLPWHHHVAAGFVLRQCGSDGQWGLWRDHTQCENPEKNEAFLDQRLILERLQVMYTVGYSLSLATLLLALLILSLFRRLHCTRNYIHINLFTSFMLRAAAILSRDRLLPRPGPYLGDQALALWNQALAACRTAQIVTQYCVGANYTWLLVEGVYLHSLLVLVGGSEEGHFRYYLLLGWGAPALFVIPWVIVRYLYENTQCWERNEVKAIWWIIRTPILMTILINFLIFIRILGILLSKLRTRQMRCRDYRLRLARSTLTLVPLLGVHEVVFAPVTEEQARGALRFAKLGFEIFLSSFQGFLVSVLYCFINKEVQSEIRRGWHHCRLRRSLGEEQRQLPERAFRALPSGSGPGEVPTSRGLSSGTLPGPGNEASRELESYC

human GLP-1 receptor = human GLP-1 receptor (human, UniProt P43220 24-463)
mouse GIP receptor = target: T2, mouse GIP receptor (mouse, UniProt Q0P543 19-460)
T2 sequence (looked up): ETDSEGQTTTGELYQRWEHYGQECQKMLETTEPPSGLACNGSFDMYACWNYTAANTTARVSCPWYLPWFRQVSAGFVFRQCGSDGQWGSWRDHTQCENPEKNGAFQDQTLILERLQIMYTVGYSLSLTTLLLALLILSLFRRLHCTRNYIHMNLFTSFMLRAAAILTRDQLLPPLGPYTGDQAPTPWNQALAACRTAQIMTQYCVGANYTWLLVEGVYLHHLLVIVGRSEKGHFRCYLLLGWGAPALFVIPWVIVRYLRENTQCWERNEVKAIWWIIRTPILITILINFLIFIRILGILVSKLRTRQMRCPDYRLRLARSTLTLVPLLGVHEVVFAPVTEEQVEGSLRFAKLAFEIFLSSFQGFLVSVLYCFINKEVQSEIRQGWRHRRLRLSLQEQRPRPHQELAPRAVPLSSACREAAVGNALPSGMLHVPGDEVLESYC

Binder	cAMP EC50 (human glucagon receptor) [nM]	cAMP EC50 (human GIP receptor) [nM]	cAMP EC50 (human GLP-1 receptor) [nM]	cAMP EC50 (mouse GIP receptor) [nM]	cAMP EC50, hGIPr (C3) line (human GIP receptor) [nM]
IP252 (Fc fusion) YSEGTFTSDYSKLLEEEAVRLFIEWLVKGPGGGGGSGGGGSGGGGSAESKYGPPCPPCPAPEAA	> 3200	0.024	0.19		
IP210 (Fc fusion) YSEGTFTSDLSKLLEEEAVRLFIEWLVKGPAAAGGSGSTASSGSGSATGGGGAATHTCPPCPAPEF		0.019	0.18		
IP211 (Fc fusion) YSEGTFTSDYSSYMEEEAVRLFIEWLVKGPAAAGGSGSTASSGSGSATGGGGAATHTCPPCPAPEF		0.5	0.23		
YSEGTFTSDYSKLLEEEAVRLFIEWLVKGPGGGGGGGATHTCPPC (Fc fusion) [IP283]	> 17000	0.049	0.56		
IP256 (Fc fusion) YSEGTFTSDYSKLLEEEAVRLFIEWLLAGGHNITQGGGGGSGGGGSGGGGSGGGGSATHTCPPCPAPEF	> 420	0.037	0.4		
IP229 (Fc fusion) YSEGTFTSDYSKLLEEEAVRLFIEWLLAGAAAGGSGSTASSGSGSATGGGGAATHTCPPCPAPEF	28	0.0062	0.15		
IP421 (Fc fusion) HGEGTFTSDLSKQMEEECVRLFIEWLKNGGPSSGAPPPGCGSGGGGSGGGGSGGGGSGGGGSGGGGSGGGGSGGGGSACPPC	> 106		3	> 106	
IP254 (Fc fusion) YSEGTFTSDYSKLLEEEAVRLFIEWLLAGNGTGGGGSGGGGSGGGGSGGGGSATHTCPPCPAPEF	160	0.026	0.53		
YSEGTFTSDYSKLLEEEAVRLFIEWLVKGPGGGGGGGGGGGGATHTCPPC (Fc fusion) [IP284]	18000	0.039	0.2		
IP239 (Fc fusion) YSEGTFTSDYSKLLEEEAVRLFIEWLVKGPAAAGGSGSTASSGSGSATGGGGAACPPCPAPEF	> 990	0.008	0.088		
IP290 (Fc fusion) YSEGTFTSDYSKLLEEEAVRLFIEWLVKGPGGGGGGGGGGGGGGGGGGGGACPPC	> 2590	0.018	0.14		
IP411 (Fc fusion) YGEGTFTSDYSKLLEEEAVRLFIEWLVKGPGGGGGGGGGGGGGGGGGGGGACPPC	> 631		0.42	> 631	
YSEGTFTSDYSKLLEEEAVRLFIEWLVKGPGGGGGSATHTCPPCPAPEF (Fc fusion, cysteine pairing not given here; also: fused to IgG1-TM Fc) [IP234]	> 15000	0.043	0.74		
IP281 (Fc fusion) YSEGTFTSDYSKLLEEEAVRLFIEWLVKGPGGGGGSGGGGSGGGGSGGGGSACPPC	3800	0.014	0.087		
IP286 (Fc fusion) YSEGTFTSDYSKLLEEEAVRLFIEWLVKGPGGGGGGGGGGGGGGGGGGGGGGGGGGGATHTCPPC	920	0.008	0.072		
IP285 (Fc fusion) YSEGTFTSDYSKLLEEEAVRLFIEWLVKGPGGGGGGGGGGGGGGGGGGGGGGGATHTCPPC	1600	0.0087	0.076		
IP423 (Fc fusion) YSEGTHTSDLRILLEEEAVRLFIEFLLAGGGSGGGGSGGGGSGGGGSGGGGSGGGGSGGGGSGGGGSACPPC	> 34.2		> 34.2	12	
IP410 (Fc fusion) YSEGTFTSLYRIHKEEEAVRLFIEKLLAGGGSGGGGSGGGGSGGGGSGGGGSGGGGSGGGGSGGGGSACPPC	> 7.99		> 7.99		> 7.99
IP415 (Fc fusion) HSQGTFTSDYSKILEEEAVRLFIEWLLAGGGSGGGGSGGGGSGGGGSGGGGSGGGGSGGGGSGGGGSACPPC	0.018		0.038	5.6	
IP416 (Fc fusion) YSEGTFTSDYSKLLEEEAVRLFIEWLLAGGGSGGGGSGGGGSGGGGSGGGGSGGGGSGGGGSGGGGSACPPC	3.4		0.1	1.1	
IP255 (Fc fusion) YSEGTFTSDYSKLLEEEAVRLFIEWLKNGTGGGGGSGGGGSGGGGSGGGGSATHTCPPCPAPEF	> 4600	0.07	0.22		
IP265 (Fc fusion) YSEGTFTSDYSKLLEEEAVRLFIEWLVKGPGKGGGSGGGGSGGGGSGGGGSATHTCPPCPAPEF	> 13000	0.015	0.1		
IP198 (Fc fusion) HGEGTFTSDVSSYMERQAIDEFIAWLLKGGAAAGGSGSTASSGSGSATGGGGAATHTCPPCPAPEF		6.3	0.042		
IP206 (Fc fusion) HGEGTFTSDVSSYMEAQSIREFIAWLVKGPAPPGGSGSTASSGSGSATGGGGAATHTCPPCPAPEF			0.084		
IP172 (Fc fusion) HGEGTFTSDVSSYMERQAIDEFIAWLLAGAAAGGSGSTASSGSGSATGGGGAATHTCPPCPAPEF	> 15000	16	0.057		
IP214 (Fc fusion) HGEGTFTSDVSSYMEAQKIDEFIAWLVKGAPPGGSGSTASSGSGSATGGGGAATHTCPPCPAPEF			0.075		
IP175 (Fc fusion) HGEGTFTSDVSSYMESQLVREFIAWLVKGAAAGGSGSTASSGSGSATGGGGAATHTCPPCPAPEF			0.051		
IP215 (Fc fusion) HGEGTFTSDVSSYMESQLVDEFIAWLVKGAAAGGSGSTASSGSGSATGGGGAATHTCPPCPAPEF			0.05		
